# Measured values reported in the nanobody polyreactivity screen of Harvey et al. (2022).
# Experiment: yeast display, Sf9 membrane polyspecificity reagent, FACS + sequencing; frameworks hold sequencing errors
# How it was run: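 A nanobody's polyreactivity label depends on the gate it was sorted from. Yeast display cells were stained with 10% biotinylated, detergent-solubilized Sf9 membrane reagent for 1 hour at 4 °C, enriched on streptavidin microbeads and sorted by FACS. The low and high (top ~1%) gates were set on anti-HA fluorescence for expression and streptavidin fluorescence for reagent binding.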
row,Sequence,polyreactivity (PSR sort gate)
1,QVQLVESGGGLVQAGGSLRLSCAASGITFDENTMGWYRQGPGKERELVAAITEIGGSTYYADSVKGRFTISRDNAKNTVYLQMHSLKPEDTAVYYCNAARWVGRFVDYEYWGQGTQVTVSS,low polyreactivity
2,QVQLVESGGGLVQAGGSLRLSCAASGITFDGYAMGWDRQAPGKERELVAVISWSAGSTYADSVKGRFTISRDNAKNTVYLQMNSLKPEDTAVYYGNARTTYRSSRYRRYEYWGQGTQVTVSS,high polyreactivity
3,QVQLVESGGGLVQAGGSLRLSCAASGITFDGYAMGWYRQAPGKERELVAAIRSSGGSTYYADSVKGRFTISRDNAKNTVYLQMNSLKPEDTAVYYCATDKVTVWGWKYDSWGQGTQVTVSS,low polyreactivity
4,QVQLVESGGGLVQAGGSLRLSCAASGITFDGYGMGWYRQAPGKERQLVAAITYSGGRTYYADSVKGRFTISRDIEKNTVYLQMNSLKPEDTAVYYCAVVSRRLYEYDYWGQGTQVTVSS,high polyreactivity
5,QVQLVESGGGLVQAGGSLRLSCAASGITFDHYAMGWYRQAPGKEREFVAAIDDIGGDTYYADSVKGRFTISRDNAKNTVYLQMNSLKPEETAVYYCATDYPWIFGHFLMDYWGQGTQVTVSS,low polyreactivity
6,QVQLVESGGGLVQAGGSLRLSCAASGITFDLYAMGWYRQAPGKEREFVATISWTGGTTYYADSVKGRFTISRDNAKNTVYLQMNSLKPEDTAVYYCNKGSDFFWYDYDYWGQGTQVTVSS,low polyreactivity
7,QVQLVESGGGLVQAGGSLRLSCAASGITFDLYDMGSYRQAPGKERELVAAITDADSTYYADSVKGRFTISRDNAKNTVLLQMNSLKPEDTAVYYCAATSYSHTKIRYDYWVQGTQVTVSS,low polyreactivity
8,QVQLVESGGGLVQAGGSLRLSCAASGITFDQYVMGWYRQAPGKERELVAAIDRSDGITYYADSVKGRFTISRDNAKNSVYLQMNSLTPEDTAVYYCAAVTYTPVYGGYYWDGGYWGQGTQVTVSS,low polyreactivity
9,QVQLVESGGGLVQAGGSLRLSCAASGITFDTYAMGWYRQAPGKERELVAAISSSGSTNYADSVKGRFTISRDNAKNTVYLQMNSLKPEDTAVYYCATDYWPGTGGNYDYWGQGTQVTVSS,low polyreactivity
10,QVQLVESGGGLVQAGGSLRLSCAASGITFDVNAMGWYRPAPGKERELVAAITAGGNTYYADSVKGRFTISRDNAKNTVYLQMNSLKPEDTAVYYCAAVSTSLYWAGYDYWGQGTQVTVSS,low polyreactivity
11,QVQLVESGGGLVQAGGSLRLSCAASGITFDWYTLGWYSQAPGKERELVAAISRNGGSTYYADSVKGRFTISRDNAKNTVYLQMNSLKPEDTAVYYCAAPLTYLYYGYDYWGQGTQVTVSS,high polyreactivity
12,QVQLVESGGGLVQAGGSLRLSCAASGITFDYYAMGWYRQAPGKERELVADISSSGGSTYYADSVKGRFTISRDNAKNSVYLQMNSLKPEDTAVYYCAAVVTKYPTTGFGYWGQGTQVTVSS,high polyreactivity
13,QVQLVESGGGLVQAGGSLRLSCAASGITFDYYAMGWYRQAPGKERELVASISSDSSTYYADSVKGRFTISRDNAKNTVYLQMNSLKPEDTAVYYCNAGDTTFPFYYWGQGTQVTVSS,low polyreactivity
14,QVQLVESGGGLVQAGGSLRLSCAASGITFEDYAMGWYRQAPGKERELVAAISWSGDITYYADSVKGRFTISRDNAKNTVYLQMNSLKPEDTAVYYCAADLSPYGYDYWGQGTQVTVSS,low polyreactivity
15,QVQLVESGGGLVQAGGSLRLSCAASGITFELNTMGWYRQAPGKEMELVAVITQNGGSTYYADSVKGRFTISRDNAKNTVYLQMNSLKPEDTAVYYCAATYVWSYLYLIRFYYWGQGTQVTVSS,high polyreactivity
16,QVQLVESGGGLVQAGGSLRLSCAASGITFETYAMGWYRQAPGKERELVAAITYSGGRTYYADSVKGRFTISRDNAKNTVYLQMNSLKPEDTAVYYCNARKYVGFWSRYDYWGQGTQVTVSS,high polyreactivity
17,QVQLVESGGGLVQAGGSLRLSCAASGITFEVNAMGWYRQAPGKERELVAAISRSAGSTYYADSVKGRFTISRDNAKNTVYLQMISLKPEDTAVYYCATALRYARSRNRFYYWGQGTQVSVSS,high polyreactivity
